Assay results as given in patent publication US20250215091A1, “Anti-GAL3 Antibodies and Compositions” (Les Laboratoires Servier, priority 2022, published 2025).

Legend:
[1] = molecular target: T1, human full-length Galectin-1 (human, UniProt P09382 2-135); test: ELISA on His-tag-immobilised antigen (3 µg/mL), periplasmic extract with scFv, anti-scFvTag.HRP, OD 450 nm
T1 construct: full-length; Histidine-tagged; also called Hu-Gall; Gall
Description: (§1) Hu-Gal3-FL, Hu-Gal3-CRD, m-Gal3-FL, Hu-Gall and Hu-Gal7 were immobilized at 3 μg/mL final concentration through their histidine tag on functionalized microplates following internal process. Periplasmic extracts containing scFvs were added into the wells and detected with an anti-scFvTag.HRP (horseradish peroxidase) antibody. Rabbit antibodies directed against Gal3 (ab53082-abcam reference), Gall (ab25138-abcam reference), and Gal7 (ab108623-abcam reference) were used at 5 μg/mL as antigen-coating positive controls and detected with an anti-rabbit.HRP secondary antibody (7074S-Cell Signaling reference).

[2] = molecular target: T2, human full-length Galectin-7 (human, UniProt P47929 1-136); test: as above
T2 construct: full-length; Histidine-tagged; also called Hu-Gal7; Gal7
T2 sequence (P47929 whole entry): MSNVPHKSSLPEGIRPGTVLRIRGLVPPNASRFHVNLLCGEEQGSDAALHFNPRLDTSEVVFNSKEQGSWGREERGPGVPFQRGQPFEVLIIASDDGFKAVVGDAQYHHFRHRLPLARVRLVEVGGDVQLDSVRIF
Description: as §1

[3] = molecular target: T3, full length human Galectin-3 (human, UniProt P17931 2-250); test: SPR Biacore T-200, antibody captured by anti-human Fc, Gal3 in solution
T3 construct: Printed as 'full length'; recombinant, immobilized through a histidine tag; also called hu-Gal3-FL; Hu-Gal3-FL
T3 sequence (P17931 2-250 limits assumed): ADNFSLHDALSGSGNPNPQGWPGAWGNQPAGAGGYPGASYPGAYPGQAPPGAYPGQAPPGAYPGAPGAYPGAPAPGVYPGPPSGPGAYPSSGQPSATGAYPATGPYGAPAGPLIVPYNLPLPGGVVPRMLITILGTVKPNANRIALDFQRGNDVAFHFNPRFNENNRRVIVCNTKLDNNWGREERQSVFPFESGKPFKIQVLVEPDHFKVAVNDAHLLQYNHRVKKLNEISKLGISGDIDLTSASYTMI
Description: The CM5 sensor surface was first immobilized with an anti-human Fc mAb using a standard protocol. The entire sensor surface was first activated by injecting a 1:1 (v/v) mixture of 400 mM EDC and 100 mM NHS at a flow rate of 10 μL/minute for 7 minutes. Monoclonal anti-human Fc antibody (Millipore AP113), 25 μg/mL in Na acetate pH5, 360 s were flowed at 10 μL/minute to reach 10000 RU on both flow cells followed by the injection of 1 M ethanolamine, pH8.5 for 7 minutes at a flow rate of 10 μL/minute. During the entire immobilization procedure, HBS-P was used as the running buffer.
Antibody samples were prepared at 5 μg/ml and were injected for 30 seconds at 10 μL/minute. In general, 400 to 680 resonance units of antibodies were captured on the chip.

T1 sequence (P09382 2-135 limits assumed): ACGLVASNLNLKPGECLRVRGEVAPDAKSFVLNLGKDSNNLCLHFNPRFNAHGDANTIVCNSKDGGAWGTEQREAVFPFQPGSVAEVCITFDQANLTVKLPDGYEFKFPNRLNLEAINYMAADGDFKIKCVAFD

B1: anti-Gal3 scFv G03 (scFv, V domains shown, not shown: small tags and cut ends)
VH: EVQLVESGGSLVKPGGSLRLSCAASGFTFSNYAMNWVRQAPGKGLEWISSIYGSSRYIYYADFVKGRFTISRDNAKNSLYLQMNSLRAEDTAVYYCVRSYNGGMDVWGRGTLVTVSS
VL: QSVLTQPASVSGSPGQSITISCAGTSSDVGGYYNVAWYQQHPGKAPKLMIYYDSYRPSGVSNRFSGSKSGNTASLTISGLQAEDEADYYCSSSTGYSTRVFGGGTKLEIK
notes: Periplasmic extract from E. coli; also called G03 (scFv)
B1: no binding [1]; no binding [2].

B2: anti-Gal3 scFv D06 (scFv, V domains shown, not shown: small tags and cut ends)
VH: EVQLVESGGSLVKPGGSLRLSCAASGFTFSNYNMNWVRQAPGKGLEWISSIYGSSRYIYYADFVKGRFTISRDNAKNSLYLQMNSLRAEDTAVYYCVRSGYGGMDVWGRGTLVTVSS
VL: QSVLTQPASVSGSPGQSITISCAGTSSDVGGYNGVSWYQQHPGKAPKLMIYYDSYRPSGVSNRFSGSKSGNTASLTISGLQAEDEADYYCSSGTDYSTRVFGGGTKLEIK
notes: Periplasmic extract from E. coli HB2151 (pHEN phagemid); also called D06 (scFv)
B2: no binding [1]; no binding [2].

B3: anti-Gal3 scFv E07 (scFv, V domains shown, not shown: small tags and cut ends)
VH: EVQLVESGGSLVKPGGSLRLSCAASGFTFSNYNMNWVRQAPGKGLEWISNIYGSSRYIYYADFVKGRFTISRDNAKNSLYLQMNSLRAEDTAVYYCVRSYYGGMDVWGRGTLVTVSS
VL: QSVLTQPASVSGSPGQSITISCAGTSSDVGGYYSVSWYQQHPGKAPKLMIYYDSNRPSGVSNRFSGSKSGNTASLTISGLQAEDEADYYCSSYTGYSTRVFGGGTKLEIK
notes: Periplasmic extract from E. coli; also called E07 (scFv)
B3: no binding [1]; no binding [2].

B4: anti-Gal3 scFv E12 (scFv, V domains shown, not shown: small tags and cut ends)
VH: EVQLVESGGSLVKPGGSLRLSCAASGFTFSNYAMNWVRQAPGKGLEWISSIYGSSRSIYYADFVKGRFTISRDNAKNSLYLQMNSLRAEDTAVYYCVRSNNAGMDVWGRGTLVTVSS
VL: QSVLTQPASVSGSPGQSITISCAGTSSDVGGYYDVSWYQQHPGKAPKLMIYYDSYRPSGVSNRFSGSKSGNTASLTISGLQAEDEADYYCSSYTSYSTRVFGGGTKLEIK
notes: Periplasmic extract from E. coli; also called E12 (scFv)
B4: no binding [1]; no binding [2].

B5: anti-Gal3 scFv H07 (scFv, V domains shown, not shown: small tags and cut ends)
VH: EVQLVESGGSLVKPGGSLRLSCAASGFTFSNYNMNWVRQAPGKGLEWISNIDGSSRYIYYADFVKGRFTISRDNAKNSLYLQMNSLRAEDTAVYYCVRSYYGGMDVWGRGTLVTVSS
VL: QSVLTQPASVSGSPGQSITISCAGTSSDVGGYYNVAWYQQHPGKAPKLMIYYDSYRPSGVSNRFSGSKSGNTASLTISGLQAEDEADYYCSSSTGYSTRVFGGGTKLEIK
notes: Periplasmic extract from E. coli; also called H07 (scFv)
B5: no binding [1]; no binding [2].

B6: anti-Gal3 scFv H10 (scFv, V domains shown, not shown: small tags and cut ends)
VH: EVQLVESGGSLVKPGGSLRLSCAASGFTFSNYYMNWVRQAPGKGLEWISYINGASRDISYADFVKGRFTISRDNAKNSLYLQMNSLRAEDTAVYYCVRSSYGYSNYGSGMDVWGRGTLVTVSS
VL: QSVLTQPASVSGSPGQSITISCAGTSSDVGGSYNVAWYQQHPGKAPKLMIYNDANRPSGVSNRFSGSKSGNTASLTISGLQAEDEADYYCSSNTADSTRVFGGGTKLEIK
notes: Periplasmic extract from E. coli; also called H10 (scFv)
B6: no binding [1]; no binding [2].

B7: anti-Gal3 scFv E01 (scFv, V domains shown, not shown: small tags and cut ends)
VH: EVQLVESGGSLVKPGGSLRLSCAASGFTFSNNYMNWVRQAPGKGLEWISNINGASRNIAYADFVKGRFTISRDNAKNSLYLQMNSLRAEDTAVYYCVRSSDYDGGMDVWGRGTLVTVSS
VL: QSVLTQPASVSGSPGQSITISCAGTSSDVGGNSYVSWYQQHPGKAPKLMIYYDSYRPSGVSNRFSGSKSGNTASLTISGLQAEDEADYYCSSSTYGSTRVFGGGTKLEIK
notes: Periplasmic extract from E. coli; also called E01 (scFv)
B7: no binding [1]; no binding [2].

B8: anti-Gal3 scFv B12 (scFv, V domains shown, not shown: small tags and cut ends)
VH: EVQLVESGGSLVKPGGSLRLSCAASGFTFSNDDMNWVRQAPGKGLEWISSIDGSSRSIYYADFVKGRFTISRDNAKNSLYLQMNSLRAEDTAVYYCVRSSGYSGGGMDVWGRGTLVTVSS
VL: QSVLTQPASVSGSPGQSITISCAGTSSDVGGSYNVAWYQQHPGKAPKLMIYSDSYRPSGVSNRFSGSKSGNTASLTISGLQAEDEADYYCSSYTSNSARVFGGGTKLEIK
notes: Periplasmic extract from E. coli; also called B12 (scFv)
B8: no binding [1]; no binding [2].

B9: anti-Gal3 scFv D11 (scFv, V domains shown, not shown: small tags and cut ends)
VH: EVQLVESGGSLVKPGGSLRLSCAASGFTFSNYNMNWVRQAPGKGLEWISSIYGSSRYIYYADFVKGRFTISRDNAKNSLYLQMNSLRAEDTAVYYCVRSSYGGMDVWGRGTLVTVSS
VL: QSVLTQPASVSGSPGQSITISCAGTSSDVGGSYNVAWYQQHPGKAPKLMIYYDSYRPSGVSNRFSGSKSGNTASLTISGLQAEDEADYYCSSYTGYSTRVFGGGTKLEIK
notes: Periplasmic extract from E. coli; also called D11 (scFv)
B9: no binding [1]; no binding [2].

B10: anti-Gal3 variant antibody D06-G1 (antibody, V domains shown)
VH: EVQLVESGGGLVKPGGSLRLSCAASGFTFSNYNMNWVRQAPGKGLEWISSIYGSSRYIYYADSVKGRFTISRDNAKNSLYLQMNSLRAEDTAVYYCVRSGYGGMDVWGRGTLVTVSS
VL: QSALTQPASVSGSPGQSITISCTGTSSDVGGYNGVSWYQQHPGKAPKLMIYYDSYRPSGVSNRFSGSKSGNTASLTISGLQAEDEADYYCSSGTDYSTRVFGQGTKLEIK
notes: Variant of D06 with framework mutations to germline; captured by anti-human Fc in SPR
B10 was tested, and the Kd [3] was 9.6 nM.

B11: anti-Gal3 variant antibody D11-G1 (antibody, V domains shown)
VH: EVQLVESGGGLVKPGGSLRLSCAASGFTFSNYNMNWVRQAPGKGLEWISSIYGSSRYIYYADSVKGRFTISRDNAKNSLYLQMNSLRAEDTAVYYCVRSSYGGMDVWGRGTLVTVSS
VL: QSALTQPASVSGSPGQSITISCTGTSSDVGGSYNVAWYQQHPGKAPKLMIYYDSYRPSGVSNRFSGSKSGNTASLTISGLQAEDEADYYCSSYTGYSTRVFGGGTKLEIK
notes: Variant of D11 with framework mutations to germline; captured by anti-human Fc in SPR
Binder B11 has a Kd [3] of 15 nM.

B12: anti-Gal3 variant antibody D11-G2 (antibody, V domains shown)
VH: EVQLVESGGGLVKPGGSLRLSCAASGFTFSNYNMNWVRQAPGKGLEWVSSIYGSSRYIYYADSVKGRFTISRDNAKNSLYLQMNSLRAEDTAVYYCVRSSYGGMDVWGRGTLVTVSS
VL: QSALTQPASVSGSPGQSITISCTGTSSDVGGSYNVAWYQQHPGKAPKLMIYYDSYRPSGVSNRFSGSKSGNTASLTISGLQAEDEADYYCSSYTGYSTRVFGGGTKLEIK
notes: as for B11
B12 was tested, and the Kd [3] was 18 nM.

B13: anti-Gal3 scFv E02 (scFv, V domains shown, not shown: small tags and cut ends)
VH: EVQLVESGGSLVKPGGSLRLSCAASGFTFSNYAMNWVRQAPGKGLEWISSIYGSSRSISYADFVKGRFTISRDNAKNSLYLQMNSLRAEDTAVYYCVRSSYNYYYGNGMDVWGRGTLVTVSS
VL: QSVLTQPASVSGSPGQSITISCAGTSSDVGGYGGVSWYQQHPGKAPKLMIYYDSYRPSGVSNRFSGSKSGNTASLTISGLQAEDEADYYCSSSTSYSTRVFGGGTKLEIK
notes: Periplasmic extract from E. coli; also called E02 (scFv)
B13: no binding [1]; no binding [2].

B14: anti-Gal3 variant antibody D06-G2 (antibody, V domains shown)
VH: EVQLVESGGGLVKPGGSLRLSCAASGFTFSNYNMNWVRQAPGKGLEWVSSIYGSSRYIYYADSVKGRFTISRDNAKNSLYLQMNSLRAEDTAVYYCVRSGYGGMDVWGRGTLVTVSS
VL: QSALTQPASVSGSPGQSITISCTGTSSDVGGYNGVSWYQQHPGKAPKLMIYYDSYRPSGVSNRFSGSKSGNTASLTISGLQAEDEADYYCSSGTDYSTRVFGQGTKLEIK
notes: as for B10
For B14, the Kd [3] was 6.8 nM.

B15: anti-Gal3 variant antibody E07-G1 (antibody, V domains shown)
VH: EVQLVESGGGLVKPGGSLRLSCAASGFTFSNYNMNWVRQAPGKGLEWISNIYGSSRYIYYADSVKGRFTISRDNAKNSLYLQMNSLRAEDTAVYYCVRSYYGGMDVWGRGTLVTVSS
VL: QSALTQPRSVSGSPGQSVTISCTGTSSDVGGYYSVSWYQQHPGKAPKLMIYYDSNRPSGVPDRFSGSKSGNTASLTISGLQAEDEADYYCSSYTGYSTRVFGQGTKLEIK
notes: Variant of E07 with framework mutations to germline; captured by anti-human Fc in SPR
Work on B15 yielded a Kd [3] of 12 nM.

B16: anti-Gal3 variant antibody E07-G2 (antibody, V domains shown)
VH: EVQLVESGGGLVKPGGSLRLSCAASGFTFSNYNMNWVRQAPGKGLEWVSNIYGSSRYIYYADSVKGRFTISRDNAKNSLYLQMNSLRAEDTAVYYCVRSYYGGMDVWGRGTLVTVSS
VL: QSALTQPRSVSGSPGQSVTISCTGTSSDVGGYYSVSWYQQHPGKAPKLMIYYDSNRPSGVPDRFSGSKSGNTASLTISGLQAEDEADYYCSSYTGYSTRVFGQGTKLEIK
notes: as for B15
B16 was tested, and the Kd [3] was 15 nM.
